{
  "source": "patent US20060223116",
  "key": {"[1]": {"system": "T1, truncated GST-fusion T-bet protein, C-terminal fragment", "T1 sequence (Q9UL17 whole entry, species assumed, looked up)": "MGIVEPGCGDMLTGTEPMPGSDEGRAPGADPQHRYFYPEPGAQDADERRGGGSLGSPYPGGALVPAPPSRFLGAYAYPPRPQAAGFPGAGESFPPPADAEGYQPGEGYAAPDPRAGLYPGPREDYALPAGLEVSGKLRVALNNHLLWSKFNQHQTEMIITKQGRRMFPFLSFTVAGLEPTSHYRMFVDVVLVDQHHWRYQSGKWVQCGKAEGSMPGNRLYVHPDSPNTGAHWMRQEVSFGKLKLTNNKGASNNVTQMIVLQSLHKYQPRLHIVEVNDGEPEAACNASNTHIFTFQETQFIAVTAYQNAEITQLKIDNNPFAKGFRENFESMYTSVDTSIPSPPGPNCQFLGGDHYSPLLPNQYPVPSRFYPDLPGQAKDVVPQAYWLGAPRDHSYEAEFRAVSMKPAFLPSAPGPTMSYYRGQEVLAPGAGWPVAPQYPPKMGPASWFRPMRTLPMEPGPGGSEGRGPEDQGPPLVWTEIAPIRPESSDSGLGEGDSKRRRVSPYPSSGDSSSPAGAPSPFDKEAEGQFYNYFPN"}, "[2]": {"system": "T2, truncated GST-fusion T-bet protein, N-terminal fragment", "T2 sequence (Q9UL17 whole entry, species assumed, looked up)": "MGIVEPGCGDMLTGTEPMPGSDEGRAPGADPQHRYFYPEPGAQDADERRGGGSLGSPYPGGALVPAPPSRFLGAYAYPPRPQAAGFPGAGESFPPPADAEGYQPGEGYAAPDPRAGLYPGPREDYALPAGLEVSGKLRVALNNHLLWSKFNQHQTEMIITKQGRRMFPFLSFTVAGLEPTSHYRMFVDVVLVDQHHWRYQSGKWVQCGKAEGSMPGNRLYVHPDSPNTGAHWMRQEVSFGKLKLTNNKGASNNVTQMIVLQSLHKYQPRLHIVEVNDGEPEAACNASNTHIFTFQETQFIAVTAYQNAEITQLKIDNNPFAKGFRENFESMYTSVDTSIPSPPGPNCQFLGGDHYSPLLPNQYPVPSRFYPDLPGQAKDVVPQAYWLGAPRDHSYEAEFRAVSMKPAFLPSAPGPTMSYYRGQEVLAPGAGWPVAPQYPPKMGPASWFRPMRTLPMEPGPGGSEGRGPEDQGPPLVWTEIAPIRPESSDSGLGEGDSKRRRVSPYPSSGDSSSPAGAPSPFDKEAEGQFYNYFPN"}},
  "data": [
    {"protein": "ITK-FLAG (full length IL-2 inducible T cell tyrosine kinase, FLAG-tagged) (enzyme, UniProt Q08881 1-620, looked up, species assumed, full-length FLAG tag) MNNFILLEEQLIKKSQQKRRTSPSNFKVRFFVLTKASLAYFEDRHGKKRTLKGSIELSRIKCVEIVKSDISIPCHYKYPFQVVHDNYLLYVFAPDRESRQRWVLALKEETRNNNSLVPKYHPNFWMDGKWRCCSQLEKLATGCAQYDPTKNASKKPLPPTPEDNRRPLWEPEETVVIALYDYQTNDPQELALRRNEEYCLLDSSEIHWWRVQDRNGHEGYVPSSYLVEKSPNNLETYEWYNKSISRDKAEKLLLDTGKEGAFMVRDSRTAGTYTVSVFTKAVVSENNPCIKHYHIKETNDNPKRYYVAEKYVFDSIPLLINYHQHNGGGLVTRLRYPVCFGRQKAPVTAGLRYGKWVIDPSELTFVQEIGSGQFGLVHLGYWLNKDKVAIKTIREGAMSEEDFIEEAEVMMKLSHPKLVQLYGVCLEQAPICLVFEFMEHGCLSDYLRTQRGLFAAETLLGMCLDVCEGMAYLEEACVIHRDLAARNCLVGENQVIKVSDFGMTRFVLDDQYTSSTGTKFPVKWASPEVFSFSRYSSKSDVWSFGVLMWEVFSEGKIPYENRSNSEVVEDISTGFRLYKPRLASTHVYQIMNHCWKERPEDRPAFSRLLRQLAEIAESGL", "values": [
      {"measurement": "in vitro kinase assay (32P-ATP, autoradiography)", "setting": "[1]", "result": "both the N and C terminal fragments but not the DNA binding domain, could be phosphorylated by the Tec kinases, ITK and RLK"},
      {"measurement": "in vitro kinase assay (32P-ATP, autoradiography)", "setting": "[2]", "result": "both the N and C terminal fragments but not the DNA binding domain, could be phosphorylated by the Tec kinases, ITK and RLK"}
    ]}
  ]
}
